Five substances from patent publication US20180222987A1 can be followed below.

The Kd is the free concentration of one partner at which half of the binding sites on the other are occupied at equilibrium, for simple one-to-one binding. High values mean lower affinity, low ones higher affinity. By koff is commonly meant the rate constant with which the complex falls apart. Lower therefore signals slow dissociation. As usually defined, the kon is the rate constant with which the complex forms.

Assay [1] concerns the target human CD3 (CD3ε of the TCR complex) on human T cells (human) (UniProt P07766). Nature of the assay: flow cytometry, Jurkat E6-1 (w/o primary ab: 7; control row of Table 2; same value as in Table 1).
The target is the same in assay [2]. In words: flow cytometry, Jurkat E6-1 (w/o primary ab: 7). A general note: Flow cytometry measures light scatter and fluorescence of single cells or particles in a stream.
Assay [3] deals with Macaca fascicularis CD3 (TCR complex) on cyno HSC-F cells (Macaca fascicularis) (UniProt Q95LI5). In words: flow cytometry, cyno HSC-F.
Macaca fascicularis CD3 (TCR complex) on cyno HSC-F cells (Macaca fascicularis), sequence (Q95LI5 22-198 limits assumed, one chain of several): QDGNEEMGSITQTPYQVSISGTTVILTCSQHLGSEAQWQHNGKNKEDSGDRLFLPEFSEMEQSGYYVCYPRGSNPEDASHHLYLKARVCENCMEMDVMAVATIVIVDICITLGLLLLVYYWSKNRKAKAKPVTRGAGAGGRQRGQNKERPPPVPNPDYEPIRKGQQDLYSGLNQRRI
The target is the same in assay [4]. Nature of the assay: flow cytometry, cyno HSC-F (control row of Table 2; same value as in Table 1).
For assay [5], the target named is Macaca fascicularis CD3ε/δ-Fc fusion heterodimer (Macaca fascicularis) (UniProt Q95LI8). In words: SPR Biacore, CODV-Fab.
Macaca fascicularis CD3ε/δ-Fc fusion heterodimer (Macaca fascicularis), sequence (chain, as listed by the source mutant, chain 1 of 2): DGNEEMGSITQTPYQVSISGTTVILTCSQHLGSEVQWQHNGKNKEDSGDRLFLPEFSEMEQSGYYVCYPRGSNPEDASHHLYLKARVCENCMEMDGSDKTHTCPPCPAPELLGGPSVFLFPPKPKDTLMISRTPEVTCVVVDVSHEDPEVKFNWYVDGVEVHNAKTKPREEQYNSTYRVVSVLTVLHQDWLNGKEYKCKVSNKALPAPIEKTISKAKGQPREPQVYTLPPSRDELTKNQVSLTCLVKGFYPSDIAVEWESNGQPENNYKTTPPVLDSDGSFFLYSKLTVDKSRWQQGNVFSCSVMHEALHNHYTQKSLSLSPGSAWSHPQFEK
Macaca fascicularis CD3ε/δ-Fc fusion heterodimer (Macaca fascicularis), sequence (Q95LI8 22-105, stated change not applied, chain 2 of 2): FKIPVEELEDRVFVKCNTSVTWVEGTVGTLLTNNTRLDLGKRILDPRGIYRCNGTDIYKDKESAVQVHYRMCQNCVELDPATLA
Assay [6] has as its target human CD3ε/δ-Fc fusion heterodimer (hCD3ε/δ-hFc) (human) (UniProt P04234). In words: SPR Biacore, CODV-Fab. (In SPR one partner is held on a chip, and binding of the other changes the refractive index at the surface.)
In assay [7] the target is human CD123 on cells (human) (UniProt P26951). In words: cell-based or functional assay.
human CD123 on cells (human), sequence (P26951 19-378): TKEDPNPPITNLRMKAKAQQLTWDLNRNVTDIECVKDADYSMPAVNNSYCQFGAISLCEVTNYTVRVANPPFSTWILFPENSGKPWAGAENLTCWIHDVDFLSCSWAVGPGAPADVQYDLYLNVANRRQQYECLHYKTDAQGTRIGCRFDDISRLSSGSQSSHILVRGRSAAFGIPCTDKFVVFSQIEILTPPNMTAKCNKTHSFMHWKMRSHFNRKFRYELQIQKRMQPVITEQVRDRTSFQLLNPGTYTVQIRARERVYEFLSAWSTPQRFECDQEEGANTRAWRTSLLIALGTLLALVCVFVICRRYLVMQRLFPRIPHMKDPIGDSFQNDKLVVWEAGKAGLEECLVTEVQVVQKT
For assay [8], the target named is recombinant huCD3ε/γ, Fc-tagged (PB01225) (human) (UniProt P07766). In words: SPR, Fc-captured CD3, 100 nM.
The target of assay [9] is Macaca fascicularis CD3ε/δ-Fc fusion heterodimer (Macaca fascicularis) (UniProt Q95LI8). In words: SPR Biacore, Fab-fragment.
Assay [10] addresses human CD3ε/δ-Fc fusion heterodimer (hCD3ε/δ-hFc) (human) (UniProt P04234). In words: SPR Biacore, Fab-fragment.
The target of assay [11] is Macaca fascicularis CD3ε/δ-Fc fusion heterodimer (Macaca fascicularis) (UniProt Q95LI8). Nature of the assay: SPR, SP-34 used as IgG.
Assay [12] addresses human CD3ε/δ-Fc fusion heterodimer (hCD3ε/δ-hFc) (human) (UniProt P04234). Nature of the assay: SPR, SP-34 used as IgG.
In assay [13] the target is Macaca fascicularis CD3ε/δ-Fc fusion heterodimer (Macaca fascicularis) (UniProt Q95LI8). Nature of the assay: SPR, cyno against human CD3ε/δ.

human CD3ε/δ-Fc fusion heterodimer (hCD3ε/δ-hFc) (human), sequence (chain, as listed by the source mutant, chain 1 of 2): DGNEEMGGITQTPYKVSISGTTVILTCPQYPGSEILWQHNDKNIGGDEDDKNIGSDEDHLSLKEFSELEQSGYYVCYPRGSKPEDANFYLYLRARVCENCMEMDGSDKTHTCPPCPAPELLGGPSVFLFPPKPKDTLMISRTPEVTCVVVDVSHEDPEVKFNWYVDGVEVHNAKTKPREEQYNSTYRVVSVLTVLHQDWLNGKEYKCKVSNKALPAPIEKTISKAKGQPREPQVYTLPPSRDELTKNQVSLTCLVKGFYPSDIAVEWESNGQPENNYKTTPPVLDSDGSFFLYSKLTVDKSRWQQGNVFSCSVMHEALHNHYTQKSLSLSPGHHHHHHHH
human CD3ε/δ-Fc fusion heterodimer (hCD3ε/δ-hFc) (human), sequence (P04234 22-105, stated change not applied, chain 2 of 2): as the sequence (Q95LI8 22-105, stated change not applied, chain 2 of 2) above, with V5I, K15N, V20I, T32S, N33D, N34I, A64T, N74S, L83V counted along it

For the substance FN18 (antibody), the geometric mean of relative fluorescence intensity in [1] is 7 rfu; in [2] it was 7 rfu; in [3], 1260 rfu; in assay [4], 1260 rfu.
In assay [5], “CODV-Fab 7G3 × I2C (bispecific antibody)” showed a Kd of 0.4 nM. In addition, in [6], the Kd was 0.5 nM, the koff turned out to be 0.002 s⁻¹ and the kon stood at 4e+06 M⁻¹ s⁻¹. Also, in [7], the Activity EC50 (cytotoxic assay, THP-1 targets + primary human T cells) was 0.02 µg/mL.
Regarding OKT3 (antibody), in assay [8], the RU of Fab binding at 100 nM is 3 RU.
Take I2C Fab (monospecific anti-CD3 Fab): the Kd in assay [9] was 0.5 nM. For the same substance, in [10], the Kd amounted to 0.13 nM, the koff is 0.0013 s⁻¹ and the kon came to 1.1e+07 M⁻¹ s⁻¹.
Take SP-34 (antibody): in [11], the Kd was 13 nM, the koff is 0.0028 s⁻¹ and the kon turned out to be 220000 M⁻¹ s⁻¹. Besides, in assay [12], the Kd was determined as 2.7 nM, the koff was 0.003 s⁻¹ and the kon turned out to be 1.1e+06 M⁻¹ s⁻¹. For the same substance, the ratio KD(cy)/KD(hu) in assay [13] was 5.
